Here are results for ten molecules from patent US20210147486A1 (VIB VZW, published 2021).

Substitutions are numbered along the chain they refer to. Names may count otherwise. Where no end group is shown, it is not given here. The star is where a group is joined. NH(CH2)5NH2 = NCCCCCN*

Assay [1] addresses T1, CsgG Y51A/N55V/F56Q/N91R/K94Q/R97W-del(V105-I107) pore containing the C terminal strep tag (Escherichia coli, UniProt P0AEA2 16-277).
T1 construct: also called Y51A/F56Q/N55V/N91R/K94Q/R97W-del(V105-I107); not shown: C-terminal Strep tag
T1 chain: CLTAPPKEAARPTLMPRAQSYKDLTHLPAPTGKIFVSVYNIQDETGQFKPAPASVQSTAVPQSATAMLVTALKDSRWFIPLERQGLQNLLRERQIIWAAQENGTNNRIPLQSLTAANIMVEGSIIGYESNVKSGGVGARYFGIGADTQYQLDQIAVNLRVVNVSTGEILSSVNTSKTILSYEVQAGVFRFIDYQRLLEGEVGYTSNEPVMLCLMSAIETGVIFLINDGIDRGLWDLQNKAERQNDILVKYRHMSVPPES
Nature of the assay: reconstitution of purified pore with synthetic peptide; electrophysiology.

Assay [2] has as its target T2, E. coli CsgG (wild type) fused C-terminally to a Strep-II tag (Escherichia coli, UniProt P0AEA2 16-277, N-terminal Cys of mature CsgG lipidated (N-terminal lipidation of CsgG)).
T2 construct: Nonameric pore; dimers of nonamers (18-mer) also seen; also called CsgG-Strep; CsgG pore; not shown: C-terminal Strep-II tag
T2 sequence: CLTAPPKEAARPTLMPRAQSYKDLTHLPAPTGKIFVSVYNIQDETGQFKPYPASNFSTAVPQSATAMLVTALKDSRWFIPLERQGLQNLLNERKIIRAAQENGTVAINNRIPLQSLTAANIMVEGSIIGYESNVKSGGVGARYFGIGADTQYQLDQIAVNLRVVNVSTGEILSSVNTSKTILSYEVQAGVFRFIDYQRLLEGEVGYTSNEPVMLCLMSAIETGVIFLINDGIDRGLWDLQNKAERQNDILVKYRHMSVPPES
Nature of the assay: co-expression in E. coli; His then Strep tandem affinity purification; SDS-PAGE.

Assay [3] addresses T2, E. coli CsgG (wild type) fused …. The assay can be described thus: co-expression, Strep affinity purification, anti-His dot blot.
For assay [4], the target named is T1, CsgG …. The assay can be described thus: reconstitution of purified pore with synthetic peptide; SDS-PAGE after heating.
Assay [5] concerns the target T3, CsgG Y51A/F56Q/N91R/K94Q/R97W-del(V105-I107) pore containing the C terminal strep tag (Escherichia coli, UniProt P0AEA2 16-277).
T3 construct: not shown: C-terminal Strep tag
T3 chain: T1 chain with V55N
The assay can be described thus: co-expression, purification, TEV cleavage; DNA translocation current recording.

Assay [6] has as its target T1, CsgG …. Nature of the assay: complex made by incubating pore and peptide; DNA translocation current recording.
Assay [7] has as its target T4, CsgG Y51T/N55V/F56Q/N91R/K94Q/R97W-del(V105-I107) pore containing the C terminal strep tag (Escherichia coli, UniProt P0AEA2 16-277).
T4 construct: not shown: C-terminal Strep tag
T4 chain: T1 chain with A51T
Nature of the assay: panel B; complex made by incubating pore and peptide; DNA translocation current recording.

The target of assay [8] is T5, CsgG Y51A/N55I/F56Q/N91R/K94Q/R97W-del(V105-I107) pore containing the C terminal strep tag (Escherichia coli, UniProt P0AEA2 16-277).
T5 construct: N551 read as N55I; also called Y51A/N551/F56Q/N91R/K94Q/R97W-del(V105-I107) (so in the source); not shown: C-terminal Strep tag
T5 chain: T1 chain with V55I
Nature of the assay: panel C; complex made by incubating pore and peptide; DNA translocation current recording.

In assay [9] the target is T6, CsgG Y51A/F56A/N91R/K94Q/R97W-del(V105-I107) pore containing the C terminal strep tag (Escherichia coli, UniProt P0AEA2 16-277).
T6 construct: not shown: C-terminal Strep tag
T6 chain: T1 chain with V55N, Q56A
The assay can be described thus: panel D; complex made by incubating pore and peptide; DNA translocation current recording.

The target in assay [10] is T7, CsgG Y51A/F56I/N91R/K94Q/R97W-del(V105-I107) pore containing the C terminal strep tag (Escherichia coli, UniProt P0AEA2 16-277).
T7 construct: F561 read as F56I; also called Y51A/F561/N91R/K94Q/R97W-del(V105-I107) (so in the source); not shown: C-terminal Strep tag
T7 chain: T1 chain with V55N, Q56I
The assay can be described thus: panel E; complex made by incubating pore and peptide; DNA translocation current recording.

The target of assay [11] is T8, CsgG Y51S/N55V/F56Q/N91R/K94Q/R97W-del(V105-I107) pore containing the C terminal strep tag (Escherichia coli, UniProt P0AEA2 16-277).
T8 construct: not shown: C-terminal Strep tag
T8 chain: T1 chain with A51S
Nature of the assay: panel F; complex made by incubating pore and peptide; DNA translocation current recording.

For assay [12], the target named is T2, E. coli CsgG (wild type) fused …. The assay can be described thus: in vitro reconstitution 2:1 peptide:CsgG, StrepTactin pull down, native PAGE fluorescence.
Assay [13] deals with T9, CsgG Y51A/F56Q/K94Q/R97W/R192D-del(V105-I107), Strep-tagged (Escherichia coli, UniProt P0AEA2 16-277).
T9 construct: also called CsgG mutant with altered constriction; not shown: C-terminal Strep tag
T9 chain: T1 chain with V55N, R91N, R189D
The description is as above.

Consider GTMTFQFRNPNFGGNPNNGAFLLNSAQAQ [CsgF-(1-29) synthetic peptide], for which, in [1], the binding result is given as “binds”.

B1: E. coli CsgF (mature) with a C-terminal 6x histidine tag (other)
chain: GTMTFQFRNPNFGGNPNNGAFLLNSAQAQNSYKDPSYNDDFGIETPSALDNFTQAIQSQILGGLLSNINTGKPGRMVTNDYIVDIANRDGQLQLNVTDRKTGQTSTIQVSGLQNNSTDFHHHHHH
notes: a start Met is not mentioned; 9:9 stoichiometry with CsgG in the cryoEM structure; also called CsgF-His
As to B1, the binding result in assay [2] is “binds”.

B2: CsgF 20:64 fragment with C-terminal 6xHis (from pNA100) (peptide)
peptide: GTMTFQFRNPNFGGNPNNGAFLLNSAQAQNSYKDPSYNDDFGIETHHHHHH
notes: also called CsgF 1-64; CsgF fragment 1-64
Regarding B2, the binding result in assay [3] is given as “binds”.

Take GTMTFQFRNPNFGGNPNNGAFLLNSAQAQNSYKDPSYNDDFGIET [CsgF-(1-45) synthetic peptide]: the binding result in assay [4] is on record as “binds”.

B3: CsgF truncated at position 35 by TEV cleavage, with ENLYFQ left at the C-terminus (peptide)
peptide: GTMTFQFRNPNFGGNPNNGAFLLNSAQAQNSYKDPENLYFQ
notes: The text calls it 42 amino acids long; 35 + 6 gives 41; also called CsgF truncated protein
Turning to B3, the binding result in assay [5] is given as “binds”.

Turning to GTMTFQFRNPNFGGNPSNGAFLLNSAQAQNSYKDPENLYFQ [CsgF N17S truncated at position 35 by TEV cleavage, with ENLYFQ left at the C-terminus], in assay [5], the binding result was “binds”.

Take GTMTFQFRNPNFGGNPNNGAFLLNSAQAQN [CsgF-(1-30) synthetic peptide]: in assay [1], the binding result is listed as “binds”.

GTMTFQFRNPNFGGNPSNGAFLLNSAQAQNSYKDP (also called CsgF-N175-(1-35)) [CsgF-N17S-(1-35) peptide]: the binding result in [6], in assay [7], in assay [8], in assay [9], in assay [10] and in assay [11] was “binds” in each case.

Regarding GTMTFQFRNPNFGGNPVNGAFLLNSAQAQNSYKDP [CsgF-N17V-(1-35) peptide], the binding result in [6] is given as “binds”.

B4: Alexa 594-labelled CsgF peptide corresponding to the first 34 residues of mature CsgF (peptide)
peptide: GTMTFQFRNPNFGGNPNNGAFLLNSAQAQNSYKD-{NH(CH2)5NH2-Alexa594}
notes: Synthetic peptide; also called CsgF N-terminal peptide; FCP
Take B4: the binding result in [12] and in [13] was “binds” each time.
